This note sets out measurements from a protein production outcome set (Wang et al. 2014).

A short description of the data set: label from the status in PepcDB records.
In the case of “MDYLNYEEIQSLKNSLLHNIKHTYISRYMILTALYTGMRPGEIAVLTWSDIDFKNQTININKSYNHDKGRVDNYDSSEIDKSTKNTNSVRIIKVDKKFLDILSQLKQNDHEKIFIGKDGTIPTSNAVNKVWRKQLEKLNIDKPSFHFHSVRHTHVALLPFKGVPLYAISKRLGHANMSTTAKKYAYMLDELKQQVRLEHHHHHH”, the protein production result is “not failed”.

In the case of “MDYLPVEVIGNILSRLGGARDVVIASATCRKWREACRKHLQTLSFNSADWPFYRDLTTNRLEILITQTIFQTMGLQGLSIMMDDANKFSAATVIAWLMYTRDTLRRLSYNVRTTPNVNILEICGRQKLEALVLAHNSITGVEPSFQRFPCLKSLSLSYVSISALDLNLLLSACPMIESLELVSLEIAMSDAQVTIELSSPTLKSVYFDGISLDKFILEADSIEFLHMKDCVLELFELIGNGTLKHFKLDDVSVIHLDIMETSESLEVVDVNHFTMVWPKFYQMISRSQKLKKLRLWDVVFDDDDEIIDVESIAAGFSHLTHLSLSYDLKDGAAHYSLQGTTQLENVTVLELGWTVINDVFSIWVEELLRRCPNLKKLIIYGVVSETKTQGDCQILATFTWSIVQLMRKYIHVEVQFEYE”, the protein production entry is “failed”.

As for “MDYRQLHRWDLPPEEAIKVQNELRKKIKLTPYEGEPEYVAGVDLSFPGKEEGLAVIVVLEYPSFKILEVVSERGEITFPYIPGLLAFREGPLFLKAWEKLRTKPDVVVFDGQGLAHPRKLGIASHMGLFIEIPTIGVAKSRLYGTFKMPEDKRCSWSYLYDGEEIIGCVIRTKEGSAPIFVSPGHLMDVESSKRLIKAFTLPGRRIPEPTRLAHIYTQRLKKGLFLEHHHHHH”, the protein production result is “not failed”.

Take “MEAATWILFTLGVSLILAKIGDSLVERFELPGVLGELLVGIILGNLVYFGVISSEYLPITAGSSEVIDFMAKLGVVFLLFLGALDTDLNLIKRTGITAVVSTILGVFVPLILGYLGLRWLGYDNKEAFAGGVLLTATSIGLTVRVMMDLGVLRSEVGAASLSASVIDDFLGIALIIFAVGSGSLLGLGIKIIIFFLITGVVGWYFIDHYLKFAERLGVEKGVLGFVLGMMLIFSALAEGWFAAAIEGAFMMGLILSKTAEGKRLLEEVRSIGYGFLIPIFFVHTGAMLNFKVFENLEAIKLAVVLSVIAIVGKVAGRGFGAWITAWGRGKDFLFTRENFRMSFQMGIGSIPRTEVALVALMVAIHGGAISPDDAPKFIAATLIFITISVLITPPLLKWAFREEILAQKKLLLENRKEKIESKKRGTR”: the protein production result is reported as “failed”.

As for “MEAFFRHAERVAHPSPRLRLLLALGHRMRGELDRGLAVLEGFPEEDPALLAEALLAQGTLLGLKGAHGEAEDVFSQGVALGETPLRARFLTSRGAARIRLGRYREAAEDLEEALFLSRKERLKEVEALALHNLAIARHHLGELAEAVRLYREVLPLKTAPLSRAYTLLSLGEALSYLGRFLEAKRTLFRAREEAWASGDYRAMGYTLLNLADLYREAGLPEAEGLYREAEAHLEKAHDPYALGLVHLGLARLGAKGSLERARALFQEGGSPGELAEWHLVAGRLCGRPEHFEEALRLAEKAGAGRLLLLARLELFLKAPSPGEAKALAREVLKAGFQDFWLWERAFPLPLLAFEAGEEGLLEALLAGVGWLRARSLKALEARTEEGPLPLPSRKELLLLLLLWRRKALEAEALARLLFPGSKNPKKRLQVAVHHLREALDPDLVRLEGEAYRAYLPPGVWWDARVKEGLLRWARRLSLPQAQARVEEALPGRFSPQAYLTDP”, the protein production entry is recorded as “failed”.

“MEALVRCLRSGQFLLIIDNLESVLQPDRQWGSLFYGDFFQAWIESGGNSKVLVTTRERPELKGFEWLTLKGLQVDEGVALLTALGIKGNLGEFVELVDGHPLLLRLVADLLKEEYPQDPDLSRLADLGLGNLQQLLTDSQVVGVHRRENVGMVLVLDASFHRLSELQKALLLNISVYRGAVDSAAAVAMLPGNSAAEIEKELRNIVKRSLLVEKLNGKRRFEFQPVVLEYVRYKAGDQSEAHQRAIDYYRSVAKQPPWTTKDDVREYLEIFDHFYQLQDYDSAFDNIRVCSKFLGLCGFFVDKVELYGQLISKWKEIGERENWNYGASLTALGNAYRYLGEYQRAIELFQQSLEIFRDIGDRNGVSNSLIGLGNTYNSVGEYQRAIELFQQSLEISRDIGDRNGVGGSLMGLGNAYNSVGEYQRAIELFQQSLEISRDIGDRNGVGNSLIGLGNAYHSLGEYQRAIEFRQQSLEIFRDMGDRNGVSISLNNLGNTYYFLGEYQRAIEFHQQSLEISRDIGDCNGVGRSLNNLGNAYYSLGKYQQAIEFHQQSLEIKRDIGDRNGVGTSLNNLGTAYSSLGKYQRAIELFQQSLEIKRDIGDRNGVGTSLMNLSNAYYRCGKIREAFAVWHQAESIFQELQLPFEAMPYPQWLKSLIKFAQRGWFQFILCFIFGLIAFPFALVWLILLFLWPSISSQFRR”: the protein production entry is “failed”.

As for “MEAPKMALSDVKCRNARPASKLVKLSDGGGLQLWVQPTGSRLWRLAYRFGGKQKLLALGSYPLISLAEAREARDTAKRLLLRGIDPAQERKSQKASAEDTFRSIAEDYVDKLKKEGRADRTITKVKWLLDFAYPTFGDKSVREIDPATILAALRSVEVRGRYESARRMRSTIGSVFRYAIATARADVDPTIALRGALVGPTVTPRAAVTDPKALGGLLRAINAFDGQPTTRAALKLMALLFPRPGELRAAGWDEFDFESSVWSIPEGRMKMRRPHRVPLSTQAVSVLTSLREISGGGSLLFPSVRSGSRPISDNTLNAALRRMGYGKEEATAHGFRATASTLLNECGKWHPDAVERQLAHIENNDVRRAYARAEHWEERVRMMQWWADYLDELESKNSRVVSIGGREASLLSIHPREGLVWKPTATVRQTTSRTSNLRKSH”, the protein production entry was “failed”.

As for “MEATAVNPSIVTASRTVQPYRRLSTLSLRFPTYRNKRVSPFTLTITRCSTTKSREAGQDSSISLKRGLVFDLGVSKDSWHSEEIGSPVVKRFLSDNEERWYMWYHGSSKQNPVSDSIGLAVSNNGIHWERGNGKVESSEDVGLVMSCGEDWWGFDTASVRPGEVVIMSSSKVRANSSVYWMYYTGYTKETVEFQSQDFTSVLGNPERFHLCDENAEKSRVYYRSLPGLAISQDGRHWARIEGEHHSGALFDVGSEKDWDFLYIASPHVVFHGDGDLRMYYHSFDEKTGEFCIGMARSRDGIKWLKLGKILGGRKSEKDGLGFFDELGGRYPCVTRNKRDESYVMAYEGVDRTGKTSIGFAVSKDGIKDWKRVQDEEAVIAVGEGGAWDNEGVGCPYLIEMDGDSDHQWRLYYRGVGNGGRTAMRGEQFELEEDRDGPLELLQSLRSKATELLLREEWEESIKVYTEFIDLSRRQVSSTGGSDPDPDSIAKLRKSLCLALCNRAEARARLRDFLEAMRDCDQALEIEKTHFKTLLCKGKVLLGLSKYSLALECFKTALLDPQASDNLETVTVYIEKCKKLEFQAKTGAFDLSDWILSEFRGKCPELAEFIGSIEIKKSELSGRGLFATKNIVAGTLVLVTKAVAIERGILGNGECGEKAQLIMWKNFVEEVTESVRKCGRTRRVVSALSTGQGEDSLEIPEIALFRPDEAFETCGDWKQSLDTEKLLSILDVNSLVEDAVSGKVMGKNKEYYGVGLWTLASFINHSCIPNARRLHVGDYVIVHASRDIKTGEEISFAYFDVLSPLEKRKEMAESWGFCCGCSRCKFESVLYATNQEVREFEMGLERGVDAGNAVYMVEEGMKRWKVKGKDKGLLRASYWGVYDEIYNSERLMKRWGRKIPTMEVVVDSVSDVVGSDERLMKMAVEGMMKKHGGFSNIVEMEKIMKLGKGVYGKVVSKKKAMKTLLGIE”, the protein production result was “failed”.

In the case of “MEAWIFEIMRAVGRFFLHPAVYVFLISSIFVGYLRMLRERKDFSFKVYDIWFELRTSLLAGVKYGLIVSIITIGLGLVVSKASLWAILLWTLLFGLTAMYRYLSAAYTFSVAIVCVLLSSKLPVSFLQLGEGEENTIVSLAILLGIMLVVEGLLISKNAVGYSTPKIRKGKRGLKIGLHESKRLWIVPIFILVPGEAVTQFISWWPVVSIGSHTYSLFLVPFLIGFMRRIRSYEPTEALLFTGRRVYGLAGLVLVLGIASYWWHVLAIIAMGVAMLGRFTISMQEKIADETRPAYFAARNDGLVVLDTIPNTIGAELNLLPGEMITKVNGVIPRSAEEFYDALQTKTTGAFCKLEVLDTNGELRLAQTALYAGGHHELGIVFVQQEHEWDSEAM”, the protein production entry is listed as “failed”.

As to “MECAEKVEAEIPGQAGRRAGKPSRTYYLEVYGCSLSEFDALIMASRLEEAGYRRVARPEDADVILVNTCAVRLDTEQRIAERLEKLRLQLPDRKYVVAGCLVKARPGLVARLVPEASLLAPQAVERVLDAVDALESGRRLVVLDGRRDTRSMPQLPITDAVVTVMIQEGCLGDCSFCITKVARRQVRSYSPRVIVERVREAVEKGAREIRLTGTDVAVYGVDLPGKPNLADLVAAILEKVEGDYRIRVGMMTPDQVEPYLDSLLDVYRDERVYKYFHLPVQSGDDEVLKIMKRNYTVSEYKAIHRRIKSRFPDAMIATDIIVGHPGETWEAFWNTVRLVEELRFEKVHLAQYSLRPHTEAASMEQVPDSVKKERSRILGKIVAEIGLEINGSYVGRRVRALVTERSWREGSMTGRLDNYTPIILPYEERAMGRWVYAEVEEATFFDLRSSKFEPAPLEHHHHHH”, the protein production result is listed as “failed”.

“MEDFYLNSRGLAGYFEAQWFDKFVEDKQVDAITSESKLVPLSFAKSSHCSQVADFITQAVSKNGKPPHALLGVGAALGRNYYELVQRLDSLKQATLVEPSGMLLNGLKQLLVEEQQVELTYIHGLNTLKTVEVDNRELVQNCAHVDLELINQPLEKDTVSKFYDLVVCLNVLDQCESPLRVINALKQATQIGGVLVVSCTYQWNAKHIKDRAEAVDDIKAYFGEDWRFVSEAEHEYRMRFNERYAMQFLSHVVAYVRTT”: the protein production result was “failed”.

For “MEDGIENTSPFNGNGESGFFKLPDREILESFRLQKVFPDSPFGFPSGHVALTTALWGGASRVFNSRTAGRLAPMVVLLMAFSRMYLGRHFLGDVIGGAALGLTLLVVFTYFLKSPLKDDFFEKENFKLAFRQKNLFFYSAMFAVPVVFVSLSLISGEVAGFFLGTNTAYLLIIRKGLPEDEGSTGQRALRVFITLMMFGLSALVLDAGFGIIGIAGYPDDTLIEFLKSFIPAFTIWISVSICIKLGLYNIASTEQIE”, the protein production entry was “failed”.

Consider “MEDHHHLPENLKPFFHRATEAQERLAKLEAALASTKTDIPDAKLVEENKQLQSKLEEANATVKQEQTKVKDLTIENAKHKYRILHLVRALKDADQKLERLSK”, for which the protein production result is “failed”.

“MEDIIVVENLVKKFGDFEAVKGVSFSVKKGEIFAFLGPNGAGKTTTIHMLTTLLKPTSGKAWVAGHDVLKEPREVRRKIGIVFQDQSLDRELTAYENMYIHGKIYGYGGEKLKKRILELLEFVELLEFKDKPVKTFSGGMARRLEIARSLIHEPEVLFLDEPTIGLDPHTRAHMWEYISKMKKEHNMTIFLTTHYMDEAEQLADRVAIIDHGKIIALGTPTELKRMVGKEIIYVRFSEAVECLEGDFIESCRKLPDGRLELNVEDSGRAIPKIFELAQQKGLKIEEITYHKPTLNDVFLHLTGRELREEGPENSFKTMARMRMRMRR”: the protein production result is “not failed”.

“MEDPLGRLEWIKFLSAFYDKEDKAENYFNQQVSKVMATENKVSSLKKPKVAFGMVDNGKVYIPAKNSYAAKMVDMAGGDYIFKDLNNKSGYITLEDFYSKSKDADVLIYSSSKEYTPSLKSMLSAAPILKTIKPVKNKKVWCFGKDYYQAIDKTDEIIEDLASIFHPESFKGLEHHHHHH”: the protein production entry is reported as “failed”.

Regarding “MEDSGAILCQISIFKDMLDQVNREIEANIQVTREIESQIGACSEIESSLSLKEPELTRSFLASQFEISGLISVTADSRNSLKLLEDEICCLRSEHSELITKTNREAVNINNCIVLDFV”, the protein production result was “failed”.

With “MEDSGKTFSSEEEEANYWKDLAMTYKQRAENTQEELREFQEGSREYEAELETQLQQIETRNRDLLSENNRLRMELETIKEKFEVQHSEGYRQISALEDDLAQTKAIKDQLQKYIRELEQANDDLERAKRATIMSLEDFEQRLNQAIERNAFLESELDEKENLLESVQRLKDEARDLRQELAVQQKQEKPRTPMPSSVEAERTDTAVQATGSVPSTPIAHRGPSSSLNTPGSFRRGLDDSTGGTPLTPAARISALNIVGDLLRKVGALESKLASCRNLVYDQSPNRTGGPASGRSSKNRDGGERRPSSTSVPLGDKGLGKRLEFGKPPSHMSSSPLPSAQGVVKMLL”, the protein production entry is reported as “failed”.
